T1: His-SET8 (UniProt Q9NQR1-2 1-352)
T1 sequence: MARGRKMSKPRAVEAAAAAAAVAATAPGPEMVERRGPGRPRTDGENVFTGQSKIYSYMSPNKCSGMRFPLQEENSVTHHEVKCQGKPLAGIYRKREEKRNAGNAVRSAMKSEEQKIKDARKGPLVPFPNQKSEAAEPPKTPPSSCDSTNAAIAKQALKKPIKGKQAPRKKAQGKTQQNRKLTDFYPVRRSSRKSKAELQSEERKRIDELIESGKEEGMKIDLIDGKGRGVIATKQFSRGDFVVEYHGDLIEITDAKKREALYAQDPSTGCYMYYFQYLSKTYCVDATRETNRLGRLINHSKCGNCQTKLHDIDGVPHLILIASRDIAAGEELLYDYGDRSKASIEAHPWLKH


Columns and labels:
[1] = molecular target: T2, full-length recombinant PARP1 protein (UniProt P09874 1-1014); test: pull-down; GST-SET8 fusions on glutathione-Sepharose beads, full-length recombinant PARP1 in solution; 1X PBS with 0.1% Triton X-100, 100 µg/ml BSA, 4 °C, 1 h; washes with 1% Triton X-100; western blot with anti-PARP1; conditions: both partners purified
T2 construct: PARP1, full-length recombinant protein bought from Active Motif; also called purified PARP1; PARP1 recombinant enzyme; source: bought: Active Motif (# 81037)
T2 sequence (P09874 whole entry, the tested form may be a part): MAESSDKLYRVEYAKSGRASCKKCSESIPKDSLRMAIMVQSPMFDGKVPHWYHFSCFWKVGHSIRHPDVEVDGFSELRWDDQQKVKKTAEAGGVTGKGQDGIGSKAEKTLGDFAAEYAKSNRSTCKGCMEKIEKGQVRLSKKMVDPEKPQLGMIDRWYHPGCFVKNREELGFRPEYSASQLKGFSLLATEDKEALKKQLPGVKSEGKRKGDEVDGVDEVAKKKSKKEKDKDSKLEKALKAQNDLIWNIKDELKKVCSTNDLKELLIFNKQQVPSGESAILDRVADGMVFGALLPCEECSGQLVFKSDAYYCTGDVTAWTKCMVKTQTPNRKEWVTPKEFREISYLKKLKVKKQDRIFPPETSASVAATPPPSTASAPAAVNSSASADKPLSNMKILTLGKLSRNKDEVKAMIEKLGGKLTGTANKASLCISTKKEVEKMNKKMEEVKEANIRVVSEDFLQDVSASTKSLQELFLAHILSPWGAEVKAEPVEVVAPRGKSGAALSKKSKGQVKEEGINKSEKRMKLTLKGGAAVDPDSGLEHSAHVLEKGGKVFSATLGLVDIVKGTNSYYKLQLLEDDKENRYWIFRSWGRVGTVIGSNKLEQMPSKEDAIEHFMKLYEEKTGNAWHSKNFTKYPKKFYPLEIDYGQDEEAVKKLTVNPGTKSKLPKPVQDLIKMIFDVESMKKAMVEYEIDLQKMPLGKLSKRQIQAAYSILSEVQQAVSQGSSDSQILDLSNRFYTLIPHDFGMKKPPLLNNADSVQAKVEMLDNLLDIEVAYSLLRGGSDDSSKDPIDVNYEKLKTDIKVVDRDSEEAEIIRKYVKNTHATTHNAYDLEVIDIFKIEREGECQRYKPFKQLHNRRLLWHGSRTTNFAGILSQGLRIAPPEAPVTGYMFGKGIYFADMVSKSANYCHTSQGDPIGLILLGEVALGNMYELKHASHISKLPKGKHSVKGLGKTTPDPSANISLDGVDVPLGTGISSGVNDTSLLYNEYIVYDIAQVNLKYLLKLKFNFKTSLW

His-SET8 = molecular target: T1, His-SET8; test: EMSA; 2 mM MgCl2; GRB buffer: 20 mM HEPES pH 7.5, 10% glycerol, 25 mM KCl, 0.1 mM EDTA, 1 mM DTT, 2 mM MgCl2, 0.2% NP40; on ice 10-15 min; 6% TBE gel, 0.5x TBE, 4 C; conditions: protein: recombinant; tags: His; label: Cy3 (end); hairpin, 10 bp stem with AAA loop

Binder | binding result [1] | Kd (His-SET8) [µM]
GST-SET8 N-terminal 1-98 (domain or fragment, UniProt Q9NQR1-2 1-98, looked up, SET8 (KMT5A) residues 1-98; vector pGEX5X.1; primers in Supplementary File 1; also called N-terminal 1–98 amino acids; source: E. coli ER2566, purified, on glutathione-Sepharose beads) MARGRKMSKPRAVEAAAAAAAVAATAPGPEMVERRGPGRPRTDGENVFTGQSKIYSYMSPNKCSGMRFPLQEENSVTHHEVKCQGKPLAGIYRKREEK | binds | 
GGGAATTCCCAAAGGGAATTCCC (structured_DNA) [EcoRI hairpin oligonucleotide] |  | 1.6 ± 0.6

The next lines start with results.

binding result [1] | Binder | Kd (His-SET8) [µM]
binds | full-length GST fusion SET8 (GST-SET8 FL) (enzyme, UniProt Q9NQR1-2 1-352, looked up, SET8 (KMT5A), full length; printed numbering runs to 352 (fragments 157-352, 175-352); vector pGEX5X.1; source: E. coli ER2566, purified, on glutathione-Sepharose beads) MARGRKMSKPRAVEAAAAAAAVAATAPGPEMVERRGPGRPRTDGENVFTGQSKIYSYMSPNKCSGMRFPLQEENSVTHHEVKCQGKPLAGIYRKREEKRNAGNAVRSAMKSEEQKIKDARKGPLVPFPNQKSEAAEPPKTPPSSCDSTNAAIAKQALKKPIKGKQAPRKKAQGKTQQNRKLTDFYPVRRSSRKSKAELQSEERKRIDELIESGKEEGMKIDLIDGKGRGVIATKQFSRGDFVVEYHGDLIEITDAKKREALYAQDPSTGCYMYYFQYLSKTYCVDATRETNRLGRLINHSKCGNCQTKLHDIDGVPHLILIASRDIAAGEELLYDYGDRSKASIEAHPWLKH | 
binds | GST-SET8 disorder domain 80-230 (domain or fragment, UniProt Q9NQR1-2 80-230, looked up, SET8 (KMT5A) disorder domain, residues 80-230; printed numbering runs to 352; vector pGEX5X.1; primers in Supplementary File 1; also called GST-SET8 DD; disorder domain (DD); source: E. coli ER2566, purified, on glutathione-Sepharose beads) EVKCQGKPLAGIYRKREEKRNAGNAVRSAMKSEEQKIKDARKGPLVPFPNQKSEAAEPPKTPPSSCDSTNAAIAKQALKKPIKGKQAPRKKAQGKTQQNRKLTDFYPVRRSSRKSKAELQSEERKRIDELIESGKEEGMKIDLIDGKGRGV | 
